Reference: IntAct's records for PubMed 22632831

B1: Transcription cofactor vestigial-like protein 1 (Mus musculus), Q99NC0 (parent)
chain: MEEMKKNGVWIPESSQKPVKTEWNAGSVIFTYFEGDINSMVDEHFSRALRNLKRPHKCSSSSHSDNLTLKNGVNKTRTDTSHTDRERKVESSQTENSGELKDVPVEEKGTNKSMPPNQRHLSSWTIAQPAASPENGARSSSLDEYGLKAMDQHSLSMPKTPSALPLEPWHFSSLARPGFIAPAYFPVFPDRHLTPEVYRVFPDRHLTPEVYHVFPDRHLTPEVYPDGRCGPLQHLVQQDRYQNHPLEPAARENCSPAKIAGSTGSLMNLPPYPVHYKKKICARGAASASLDDERSPSPKRRRDAYYY

Variants of: B1
Settings: with Tead4, Q62296-1
Tead4, Q62296-1, sequence (Q62296 whole entry): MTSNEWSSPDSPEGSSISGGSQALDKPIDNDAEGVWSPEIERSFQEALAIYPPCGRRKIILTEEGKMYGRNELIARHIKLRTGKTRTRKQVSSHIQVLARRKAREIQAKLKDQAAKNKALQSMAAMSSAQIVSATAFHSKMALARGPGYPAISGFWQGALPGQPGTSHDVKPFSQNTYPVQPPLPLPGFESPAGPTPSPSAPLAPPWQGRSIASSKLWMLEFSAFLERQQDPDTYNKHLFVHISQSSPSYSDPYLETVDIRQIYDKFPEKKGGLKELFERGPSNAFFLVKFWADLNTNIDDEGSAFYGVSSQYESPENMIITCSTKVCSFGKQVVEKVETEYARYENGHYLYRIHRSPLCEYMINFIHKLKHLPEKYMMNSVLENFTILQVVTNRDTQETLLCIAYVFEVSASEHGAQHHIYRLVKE

| Variant | effect of a mutation on the interaction |
| --- | --- |
| H44A;F45A | decreasing interaction strength |
